Consider 3 molecules from publication PMC11374337 (2024).

In assay [1] the target is paxillin LIM2/3 tandem domain (aa380-499) (human) (UniProt P49023). Kind of assay: NMR titration; 1H-15N HSQC, 250-300 μM 15N-labelled paxillin LIM2/3 (wt or 4A), unlabelled integrin β3 tail added; 298 K, 50 mM Na2HPO4, 150 mM NaCl, 0.1 mM ZnSO4, 1 mM DTT, 5% D2O, pH 7.5; global fit of CSPs.
The target of assay [2] is cytoplasmic tail of human integrin β3 (aa748-788) (human) (UniProt P05106). Put plainly: NMR titration; 1H-15N HSQC, 300 μM 15N-labelled integrin β tail, unlabelled paxillin LIM2/3 added; 298 K, 50 mM Na2HPO4, 150 mM NaCl, 0.1 mM ZnSO4, 1 mM DTT, 5% D2O, pH 6.2; global fit of CSPs to a one site binding model.
For assay [3], the target named is cytoplasmic tail of human integrin β1 (aa758-798) (human) (UniProt P05556). The description is as above.
The target in the next assay is T1, ITGB1 (Homo sapiens (Human), UniProt P05556).
T1 chain: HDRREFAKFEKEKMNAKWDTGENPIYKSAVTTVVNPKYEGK
Put plainly: NMR.

Another assay concerns the target T2, ITGB3 (Homo sapiens (Human), UniProt P05106).
T2 chain: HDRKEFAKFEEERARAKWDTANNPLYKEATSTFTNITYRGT
Put plainly: NMR.

What is called Kd is the free concentration of one partner at which half of the binding sites on the other are occupied at equilibrium, for simple one-to-one binding. High values mean a looser complex, low ones a tighter complex.

As for “cytoplasmic tail of human integrin β3 (aa748-788) (from UniProt P05106 748-788) (domain or fragment)”, in assay [1], the Kd is 532 µM.
In assay [2], “paxillin LIM2/3 tandem domain (aa380-499) (from UniProt P49023-2 380-499) (domain or fragment)” came in with a Kd of 528 µM and a fraction bound at the end of the titration of 70%. This molecule also gave a Kd in assay [3] of 52 µM.

B1: paxillin (protein)
chain: SPRCYYCNGPILDKVVTALDRTWHPEHFFCAQCGAFFGPEGFHEKDGKAYCRKDYFDMFAPKCGGCARAILENYISALNTLWHPECFVCRECFTPFVNGSFFEHDGQPYCEVHYHERRGS
Consider B1, for which the Kd with ITGB1 amounted to 52 µM; in the assay with ITGB3 it was 528 µM.
